According to US20170073395A1 (Pfizer, published 2017):

Key:
hVEGF = target: T1, hVEGF (human, UniProt P15692-4 27-191, limits assumed); experiment: Biacore specificity assay: IgG immobilised (about 300 RU), antigen injected at 500 nM
T1 construct: Non-target panel protein
Protocol: (§1) Biacore specificity analyses were performed using the T-200 biosensor, series S CM5 chips, an amine-coupling kit, 10 mM sodium acetate immobilization buffer at pH 5.0, 10× HBS-P running buffer and NaOH for regeneration (GE Healthcare). A predefined ligand (IgG) immobilization program was set up to immobilize approximately 300 Response Units (RU) on the flow cell for each IgG to be tested. For Anti-RAGE and anti-A33, a panel of fully-purified recombinant target and non-target antigens were diluted in HBS-P running buffer to a final concentration of 500 nM. Four groups of antigens were examined, including: cell membrane proteins (mTRKB, hTRKB, mEGFR, hEGFR, hFceR1, hIL-21R, mICAM1, mICAM2, hICAM1, hCD33, hLAMP-1, hLOX-1, and), soluble signaling molecules (mTNFa, hVEGF, hCXCL13) and albumins (BSA, HSA and MSA). These proteins were injected at 50 μl/min for 3 min, followed by a 5 sec pulse of 20 mM NaOH for regeneration of the chip surface. For pTau, a series of pTau-derived phosphorylated and non-phosphorylated peptides were flowed, as in Shih et al.³. All sensorgrams were analyzed using the Biacore T-200 evaluation software.

hICAM1 = target: T2, hICAM1 (human, UniProt P05362 28-480, limits assumed); experiment: as above
T2 construct: Non-target panel protein
T2 sequence (P05362 28-480 limits assumed): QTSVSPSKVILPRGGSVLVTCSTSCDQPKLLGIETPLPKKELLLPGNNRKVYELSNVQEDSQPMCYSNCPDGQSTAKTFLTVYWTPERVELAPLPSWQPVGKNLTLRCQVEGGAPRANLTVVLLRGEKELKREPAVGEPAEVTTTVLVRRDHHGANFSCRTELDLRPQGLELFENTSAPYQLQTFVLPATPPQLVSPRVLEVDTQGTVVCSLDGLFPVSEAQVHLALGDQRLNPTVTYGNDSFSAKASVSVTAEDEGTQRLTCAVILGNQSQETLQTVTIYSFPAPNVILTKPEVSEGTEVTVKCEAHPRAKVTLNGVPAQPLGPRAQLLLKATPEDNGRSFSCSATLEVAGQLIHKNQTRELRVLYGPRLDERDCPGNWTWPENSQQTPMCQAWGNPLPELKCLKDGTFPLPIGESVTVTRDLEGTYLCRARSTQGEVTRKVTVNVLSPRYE
Protocol: as §1

MSA = target: T3, MSA (UniProt P07724 25-608); experiment: as above
T3 construct: Non-target panel protein (albumins)
Protocol: as §1

mTNFa = target: T4, mTNFa (mouse, UniProt P06804 80-235); experiment: as above
T4 construct: Non-target panel protein
T4 sequence (looked up): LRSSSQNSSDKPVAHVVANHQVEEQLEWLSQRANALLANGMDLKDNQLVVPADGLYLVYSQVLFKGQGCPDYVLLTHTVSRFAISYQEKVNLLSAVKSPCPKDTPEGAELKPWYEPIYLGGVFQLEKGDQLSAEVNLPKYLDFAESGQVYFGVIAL
Protocol: as §1

HSA = target: T5, HSA (UniProt P02768 25-609); experiment: as above
T5 construct: Non-target panel protein (albumins)
T5 sequence (P02768 25-609): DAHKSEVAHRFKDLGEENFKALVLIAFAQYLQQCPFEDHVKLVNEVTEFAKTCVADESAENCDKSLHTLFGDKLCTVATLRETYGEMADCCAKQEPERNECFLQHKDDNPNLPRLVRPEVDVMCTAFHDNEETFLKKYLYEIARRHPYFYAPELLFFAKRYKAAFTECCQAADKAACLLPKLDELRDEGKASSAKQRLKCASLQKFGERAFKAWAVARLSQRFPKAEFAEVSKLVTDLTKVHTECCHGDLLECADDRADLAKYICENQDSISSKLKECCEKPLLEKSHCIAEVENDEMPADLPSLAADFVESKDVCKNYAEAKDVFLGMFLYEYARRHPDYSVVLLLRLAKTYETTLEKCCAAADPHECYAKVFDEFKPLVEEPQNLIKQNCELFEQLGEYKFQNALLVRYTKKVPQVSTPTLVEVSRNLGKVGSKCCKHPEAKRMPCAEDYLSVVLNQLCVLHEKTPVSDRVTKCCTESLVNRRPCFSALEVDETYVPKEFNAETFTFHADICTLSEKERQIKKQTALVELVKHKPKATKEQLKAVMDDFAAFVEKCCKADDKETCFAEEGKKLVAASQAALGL
Protocol: as §1

hEGFR = target: T6, hEGFR (human, UniProt P00533 25-645, limits assumed); experiment: as above
T6 construct: Non-target panel protein
Protocol: as §1

hIL-21R = target: T7, hIL-21R (human, UniProt Q9HBE5 20-232, limits assumed); experiment: as above
T7 construct: Non-target panel protein
T7 sequence (Q9HBE5 20-232 limits assumed): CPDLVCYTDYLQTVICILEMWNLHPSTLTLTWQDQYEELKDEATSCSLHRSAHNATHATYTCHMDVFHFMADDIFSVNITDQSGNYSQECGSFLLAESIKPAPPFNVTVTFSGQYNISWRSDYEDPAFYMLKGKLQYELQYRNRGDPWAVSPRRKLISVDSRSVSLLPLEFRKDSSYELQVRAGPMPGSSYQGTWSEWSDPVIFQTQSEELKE
Protocol: as §1

hLAMP-1 = target: T8, hLAMP-1 (human, UniProt P11279 29-382, limits assumed); experiment: as above
T8 construct: Non-target panel protein
T8 sequence (looked up): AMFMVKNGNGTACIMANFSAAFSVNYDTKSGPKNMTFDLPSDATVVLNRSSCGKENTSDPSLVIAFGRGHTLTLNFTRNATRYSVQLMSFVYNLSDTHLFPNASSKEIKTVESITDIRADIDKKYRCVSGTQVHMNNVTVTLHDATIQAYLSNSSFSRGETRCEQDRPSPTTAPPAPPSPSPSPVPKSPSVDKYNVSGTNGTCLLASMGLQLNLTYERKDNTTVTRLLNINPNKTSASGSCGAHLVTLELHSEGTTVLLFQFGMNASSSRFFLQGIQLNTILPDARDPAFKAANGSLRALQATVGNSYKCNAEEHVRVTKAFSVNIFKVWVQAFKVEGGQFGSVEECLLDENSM
Protocol: as §1

hCD33 = target: T9, hCD33 (human, UniProt P20138 18-259, limits assumed); experiment: as above
T9 construct: Non-target panel protein
T9 sequence (P20138 18-259 limits assumed): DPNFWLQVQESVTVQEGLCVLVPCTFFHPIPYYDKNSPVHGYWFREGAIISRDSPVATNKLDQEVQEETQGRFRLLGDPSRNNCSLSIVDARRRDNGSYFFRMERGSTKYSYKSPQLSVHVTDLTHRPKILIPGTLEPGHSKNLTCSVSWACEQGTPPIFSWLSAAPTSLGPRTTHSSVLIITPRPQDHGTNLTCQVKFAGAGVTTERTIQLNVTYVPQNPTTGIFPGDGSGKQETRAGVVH
Protocol: as §1

mEGFR = target: T10, mEGFR (mouse, UniProt Q01279 25-647, limits assumed); experiment: as above
T10 construct: Non-target panel protein
Protocol: as §1

hTRKB = target: T11, hTRKB (human, UniProt Q16620 32-430, limits assumed); experiment: as above
T11 construct: Non-target panel protein
T11 sequence (Q16620 32-430 limits assumed): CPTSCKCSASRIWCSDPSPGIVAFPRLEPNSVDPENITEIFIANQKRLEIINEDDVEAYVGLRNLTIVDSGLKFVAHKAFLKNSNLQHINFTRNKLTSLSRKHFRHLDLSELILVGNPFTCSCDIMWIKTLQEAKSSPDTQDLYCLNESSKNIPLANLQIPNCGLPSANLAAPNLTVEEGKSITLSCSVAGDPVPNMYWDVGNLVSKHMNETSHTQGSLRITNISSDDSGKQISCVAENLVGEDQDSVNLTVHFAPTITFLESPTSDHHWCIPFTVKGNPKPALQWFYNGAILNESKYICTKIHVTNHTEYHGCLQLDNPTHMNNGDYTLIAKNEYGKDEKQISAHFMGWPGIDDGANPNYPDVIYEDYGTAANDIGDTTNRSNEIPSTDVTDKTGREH
Protocol: as §1

[1] = target: T12, RAGE (cognate target of the anti-RAGE antibodies; species not stated at the place) (Homo sapiens (Human), UniProt Q15109 23-342); experiment: Biacore T-200 SPR, IgG immobilised (~100 RU), purified target protein injected
T12 construct: not shown: Carrier or tag of the soluble construct
T12 sequence (Q15109 23-342 limits assumed): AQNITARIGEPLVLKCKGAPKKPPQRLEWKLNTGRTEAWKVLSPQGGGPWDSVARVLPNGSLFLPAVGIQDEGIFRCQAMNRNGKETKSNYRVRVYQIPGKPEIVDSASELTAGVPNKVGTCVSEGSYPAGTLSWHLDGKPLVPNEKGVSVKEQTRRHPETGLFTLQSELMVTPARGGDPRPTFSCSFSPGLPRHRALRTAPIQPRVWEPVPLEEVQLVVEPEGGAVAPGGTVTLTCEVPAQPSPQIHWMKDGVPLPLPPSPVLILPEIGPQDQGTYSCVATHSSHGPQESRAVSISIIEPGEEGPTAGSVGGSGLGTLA
Protocol: (§2) Biacore analysis was performed using the T-200 biosensor, series S CM5 chips, an amine-coupling kit, 10 mM sodium acetate immobilization buffer at pH 5.0, 10×HBS-P running buffer and NaOH for regeneration (GE Healthcare). Kinetic assay conditions were established to minimize the influence of mass transfer, avidity and rebinding events. A predefined ligand immobilization program was set up to immobilize approximately 100 Response Units (RU) of IgG on the chip. Purified target proteins were diluted in HBS-P running buffer to a range of final concentrations and injected at 50 μl/min for 3 mins. Dissociation was allowed to proceed for 10 min followed by a 5 sec pulse of 20 mM NaOH for regeneration of the chip surface. All sensorgrams were analyzed using the Biacore T-200 evaluation software.

[2] = target: T12, RAGE (cognate target of the anti-RAGE …); experiment: Biacore SPR
Protocol: ABS leads in human IgG1 format were analyzed for specificity and stability.
as §2

[3] = target: T12, RAGE (cognate target of the anti-RAGE …); experiment: HTRF epitope competition, IgG titrated; competitor parental IgG (Par-RAGE)
mRAGE = target: T13, mRAGE (mouse, UniProt Q62151 24-342, limits assumed); experiment: Biacore specificity assay: IgG immobilised (about 300 RU), antigen m-RAGE-fc injected at 500 nM
T13 construct: also called mouse RAGE
T13 sequence (Q62151 24-342 limits assumed): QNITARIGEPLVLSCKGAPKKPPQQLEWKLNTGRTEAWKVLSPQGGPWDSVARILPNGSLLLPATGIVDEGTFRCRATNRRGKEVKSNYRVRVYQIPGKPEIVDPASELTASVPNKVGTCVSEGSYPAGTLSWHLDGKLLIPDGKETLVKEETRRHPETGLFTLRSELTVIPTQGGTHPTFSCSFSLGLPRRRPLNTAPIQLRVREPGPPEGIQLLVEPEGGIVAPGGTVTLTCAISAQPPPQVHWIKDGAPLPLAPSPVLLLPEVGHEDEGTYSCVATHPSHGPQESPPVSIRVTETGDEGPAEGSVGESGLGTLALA
Protocol: as §1

T1 sequence (P15692 other isoform, or with tags, fused parts or gaps limits assumed): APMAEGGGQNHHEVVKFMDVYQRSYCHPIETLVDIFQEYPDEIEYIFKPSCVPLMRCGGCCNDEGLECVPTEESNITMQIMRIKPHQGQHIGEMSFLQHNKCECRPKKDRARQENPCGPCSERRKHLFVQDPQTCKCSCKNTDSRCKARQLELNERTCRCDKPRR

- binding result (hVEGF): no binding (tested: 500 nM)
- binding result (hICAM1): no binding (tested: 500 nM)
- binding result (MSA): no binding (tested: 500 nM)
- binding result (mTNFa): no binding (tested: 500 nM)
- binding result (HSA): no binding (tested: 500 nM)
- binding result (hEGFR): no binding (tested: 500 nM)
- binding result (hIL-21R): no binding (tested: 500 nM)
- binding result (hLAMP-1): no binding (tested: 500 nM)
- binding result (hCD33): no binding (tested: 500 nM)
- binding result (mEGFR): no binding (tested: 500 nM)
- binding result (hTRKB): no binding (tested: 500 nM)
- Kd [1]: 17 nM
- fold affinity improvement over Par-RAGE [2]: ~2 fold
- IC50 [3]: 5.8 nM
- binding result (mRAGE): binds
B1: C7-ABS-RAGE IgG (human IgG1) (antibody, V domains shown)
VH: EVQLVESGGGLVQPGGSLRLSCAASGFTFSSYWMSWVRQAPGKGLEWVASIDQDGSNKYYPDSVKGRFTISRDNAKNSLYLQMNSLRAEDTAVYYCARGGDITTGLDYWGQGTLVTVSS
VL: DIQMTQSPSSLSASVGDRVTITCRASQSIGSYLNWYQQKPGKAPKLLIYRASSLASGVPSRFSGSGSGTDFTLTISSLQPEDFATYYCLEFDEHPLTFGGGTKVEIK
notes: Human IgG1 format
